{
  "source": "the FLAb antibody collection (doi:10.1101/2023.12.08.570889)",
  "target": "TSLP, Q969D9",
  "assay": "Kd (SPR)",
  "data": [
    {"binder": "unnamed (protein) chain 1: QMQLVESGGGVVQPGRSLRLSCAASGFTFSTFAMHWVRQAPGKGLEWVAVIWYDGSNKHYADSVKGRFTITRDNSKNTLNLQMNSLRAEDTAVYYCARSPRYDEYWEAFDVWGQGTMVTVSS chain 2: SYVLTQPPSVSVAPGQTARITCGGNNLGSKSVHWYQQKPGQAPVLVVYDDSDRPSWIPERFSGSNSGNTATLTISRGEAGDEADYYCQVWDSSSDHVVFGGGTKLTVL", "values": [
      {"measurement": "Kd", "value": 31.6, "unit": "nM"}
    ]},
    {"binder": "unnamed (protein) chain 1: QMQLVESGGGVVQPGRSLRLSCAASGFTFSTYAMHWVRQAPGKGLEWVAVIWYDGSNKHYADSVKGRFTITRDNSKNTLNLQMNSLRAEDTAVYYCARAPRYDYYYEAFDVWGQGTMVTVSS chain 2: SYVLTQPPSVSVAPGQTARITCGGNNLGSKSVHWYQQKPGQAPVLVVYDDSDRPSWIPERFSGSNSGNTATLTISRGEAGDEADYYCQVWDSSSDHVVFGGGTKLTVL", "values": [
      {"measurement": "Kd", "value": 315, "unit": "nM"}
    ]},
    {"binder": "unnamed (protein) chain 1: QMQLVESGGGVVQPGRSLRLSCAASGFTFSTFAMHWVRQAPGKGLEWVAVIWYDGSNKHYADSVKGRFTITRDNSKNTLNLQMNSLRAEDTAVYYCARSPRYDEYLEAFDVWGQGTMVTVSS chain 2: SYVLTQPPSVSVAPGQTARITCGGNNLGSKSVHWYQQKPGQAPVLVVYDDSDRPSWIPERFSGSNSGNTATLTISRGEAGDEADYYCQVWDSSSDHVVFGGGTKLTVL", "values": [
      {"measurement": "Kd", "value": 117, "unit": "nM"}
    ]},
    {"binder": "unnamed (protein) chain 1: QMQLVESGGGVVQPGRSLRLSCAASGFTFSTFAMHWVRQAPGKGLEWVAVIWYDGSNKHYADSVKGRFTITRDNSKNTLNLQMNSLRAEDTAVYYCARAPRYYWYWEAFDVWGQGTMVTVSS chain 2: SYVLTQPPSVSVAPGQTARITCGGNNLGSKSVHWYQQKPGQAPVLVVYDDSDRPSWIPERFSGSNSGNTATLTISRGEAGDEADYYCQVWDSSSDHVVFGGGTKLTVL", "values": [
      {"measurement": "Kd", "value": 353, "unit": "nM"}
    ]},
    {"binder": "unnamed (protein) chain 1: QMQLVESGGGVVQPGRSLRLSCAASGFTFSTFAMHWVRQAPGKGLEWVAVIWYDGSNKHYADSVKGRFTITRDNSKNTLNLQMNSLRAEDTAVYYCARSPRYDYYYEAFDVWGQGTMVTVSS chain 2: SYVLTQPPSVSVAPGQTARITCGGNNLGSKSVHWYQQKPGQAPVLVVYDDSDRPSWIPERFSGSNSGNTATLTISRGEAGDEADYYCQVWDSSSDHVVFGGGTKLTVL", "values": [
      {"measurement": "Kd", "value": 372, "unit": "nM"}
    ]},
    {"binder": "unnamed (protein) chain 1: QMQLVESGGGVVQPGRSLRLSCAASGFTFSTYAMHWVRQAPGKGLEWVAVIWYDGSNKHYADSVKGRFTITRDNSKNTLNLQMNSLRAEDTAVYYCARSPRYDWYYEAFDVWGQGTMVTVSS chain 2: SYVLTQPPSVSVAPGQTARITCGGNNLGSKSVHWYQQKPGQAPVLVVYDDSDRPSWIPERFSGSNSGNTATLTISRGEAGDEADYYCQVWDSSSDHVVFGGGTKLTVL", "values": [
      {"measurement": "Kd", "value": 96.3, "unit": "nM"}
    ]},
    {"binder": "unnamed (protein) chain 1: QMQLVESGGGVVQPGRSLRLSCAASGFTFSTFAMHWVRQAPGKGLEWVAVIWYDGSNKHYADSVKGRFTITRDNSKNTLNLQMNSLRAEDTAVYYCARAPRYDDAYEAFDVWGQGTMVTVSS chain 2: SYVLTQPPSVSVAPGQTARITCGGNNLGSKSVHWYQQKPGQAPVLVVYDDSDRPSWIPERFSGSNSGNTATLTISRGEAGDEADYYCQVWDSSSDHVVFGGGTKLTVL", "values": [
      {"measurement": "Kd", "value": 387, "unit": "nM"}
    ]},
    {"binder": "unnamed (protein) chain 1: QMQLVESGGGVVQPGRSLRLSCAASGFTFSTFAMHWVRQAPGKGLEWVAVIWYDGSNKHYADSVKGRFTITRDNSKNTLNLQMNSLRAEDTAVYYCARAPRYDYYLEAFDVWGQGTMVTVSS chain 2: SYVLTQPPSVSVAPGQTARITCGGNNLGSKSVHWYQQKPGQAPVLVVYDDSDRPSWIPERFSGSNSGNTATLTISRGEAGDEADYYCQVWDSSSDHVVFGGGTKLTVL", "values": [
      {"measurement": "Kd", "value": 519, "unit": "nM"}
    ]},
    {"binder": "unnamed (protein) chain 1: QMQLVESGGGVVQPGRSLRLSCAASGFTFSTFAMHWVRQAPGKGLEWVAVIWYDGSNKHYADSVKGRFTITRDNSKNTLNLQMNSLRAEDTAVYYCARSPRYDEYYEAFDVWGQGTMVTVSS chain 2: SYVLTQPPSVSVAPGQTARITCGGNNLGSKSVHWYQQKPGQAPVLVVYDDSDRPSWIPERFSGSNSGNTATLTISRGEAGDEADYYCQVWDSSSDHVVFGGGTKLTVL", "values": [
      {"measurement": "Kd", "value": 103, "unit": "nM"}
    ]},
    {"binder": "unnamed (protein) chain 1: QMQLVESGGGVVQPGRSLRLSCAASGFTFSTFAMHWVRQAPGKGLEWVAVIWYDGSNKHYADSVKGRFTITRDNSKNTLNLQMNSLRAEDTAVYYCARAPRYDEYLEAFDVWGQGTMVTVSS chain 2: SYVLTQPPSVSVAPGQTARITCGGNNLGSKSVHWYQQKPGQAPVLVVYDDSDRPSWIPERFSGSNSGNTATLTISRGEAGDEADYYCQVWDSSSDHVVFGGGTKLTVL", "values": [
      {"measurement": "Kd", "value": 305, "unit": "nM"}
    ]},
    {"binder": "unnamed (protein) chain 1: QMQLVESGGGVVQPGRSLRLSCAASGFTFSTFAMHWVRQAPGKGLEWVAVIWYDGSNKHYADSVKGRFTITRDNSKNTLNLQMNSLRAEDTAVYYCARAPRYYEYWEAFDVWGQGTMVTVSS chain 2: SYVLTQPPSVSVAPGQTARITCGGNNLGSKSVHWYQQKPGQAPVLVVYDDSDRPSWIPERFSGSNSGNTATLTISRGEAGDEADYYCQVWDSSSDHVVFGGGTKLTVL", "values": [
      {"measurement": "Kd", "value": 190, "unit": "nM"}
    ]},
    {"binder": "unnamed (protein) chain 1: QMQLVESGGGVVQPGRSLRLSCAASGFTFSTYAMHWVRQAPGKGLEWVAVIWYDGSNKHYADSVKGRFTITRDNSKNTLNLQMNSLRAEDTAVYYCARAPRYYEYWEAFDVWGQGTMVTVSS chain 2: SYVLTQPPSVSVAPGQTARITCGGNNLGSKSVHWYQQKPGQAPVLVVYDDSDRPSWIPERFSGSNSGNTATLTISRGEAGDEADYYCQVWDSSSDHVVFGGGTKLTVL", "values": [
      {"measurement": "Kd", "value": 285, "unit": "nM"}
    ]},
    {"binder": "unnamed (protein) chain 1: QMQLVESGGGVVQPGRSLRLSCAASGFTFSTYAMHWVRQAPGKGLEWVAVIWYDGSNKHYADSVKGRFTITRDNSKNTLNLQMNSLRAEDTAVYYCARSPRYDYYYEAFDVWGQGTMVTVSS chain 2: SYVLTQPPSVSVAPGQTARITCGGNNLGSKSVHWYQQKPGQAPVLVVYDDSDRPSWIPERFSGSNSGNTATLTISRGEAGDEADYYCQVWDSSSDHVVFGGGTKLTVL", "values": [
      {"measurement": "Kd", "value": 524, "unit": "nM"}
    ]},
    {"binder": "unnamed (protein) chain 1: QMQLVESGGGVVQPGRSLRLSCAASGFTFSTFAMHWVRQAPGKGLEWVAVIWYDGSNKHYADSVKGRFTITRDNSKNTLNLQMNSLRAEDTAVYYCARSPRYDWYYEAFDVWGQGTMVTVSS chain 2: SYVLTQPPSVSVAPGQTARITCGGNNLGSKSVHWYQQKPGQAPVLVVYDDSDRPSWIPERFSGSNSGNTATLTISRGEAGDEADYYCQVWDSSSDHVVFGGGTKLTVL", "values": [
      {"measurement": "Kd", "value": 126, "unit": "nM"}
    ]},
    {"binder": "unnamed (protein) chain 1: QMQLVESGGGVVQPGRSLRLSCAASGFTFSTYAMHWVRQAPGKGLEWVAVIWYDGSNKHYADSVKGRFTITRDNSKNTLNLQMNSLRAEDTAVYYCARAPRYYYYYEAFDVWGQGTMVTVSS chain 2: SYVLTQPPSVSVAPGQTARITCGGNNLGSKSVHWYQQKPGQAPVLVVYDDSDRPSWIPERFSGSNSGNTATLTISRGEAGDEADYYCQVWDSSSDHVVFGGGTKLTVL", "values": [
      {"measurement": "Kd", "value": 152, "unit": "nM"}
    ]},
    {"binder": "unnamed (protein) chain 1: QMQLVESGGGVVQPGRSLRLSCAASGFTFSTFAMHWVRQAPGKGLEWVAVIWYDGSNKHYADSVKGRFTITRDNSKNTLNLQMNSLRAEDTAVYYCARSPRYDDYWEAFDVWGQGTMVTVSS chain 2: SYVLTQPPSVSVAPGQTARITCGGNNLGSKSVHWYQQKPGQAPVLVVYDDSDRPSWIPERFSGSNSGNTATLTISRGEAGDEADYYCQVWDSSSDHVVFGGGTKLTVL", "values": [
      {"measurement": "Kd", "value": 320, "unit": "nM"}
    ]},
    {"binder": "unnamed (protein) chain 1: QMQLVESGGGVVQPGRSLRLSCAASGFTFSTYAMHWVRQAPGKGLEWVAVIWYDGSNKHYADSVKGRFTITRDNSKNTLNLQMNSLRAEDTAVYYCARAPRYDDAYEAFDVWGQGTMVTVSS chain 2: SYVLTQPPSVSVAPGQTARITCGGNNLGSKSVHWYQQKPGQAPVLVVYDDSDRPSWIPERFSGSNSGNTATLTISRGEAGDEADYYCQVWDSSSDHVVFGGGTKLTVL", "values": [
      {"measurement": "Kd", "value": 370, "unit": "nM"}
    ]},
    {"binder": "unnamed (protein) chain 1: QMQLVESGGGVVQPGRSLRLSCAASGFTFSTFAMHWVRQAPGKGLEWVAVIWYDGSNKHYADSVKGRFTITRDNSKNTLNLQMNSLRAEDTAVYYCARAPRYDWDYEAFDVWGQGTMVTVSS chain 2: SYVLTQPPSVSVAPGQTARITCGGNNLGSKSVHWYQQKPGQAPVLVVYDDSDRPSWIPERFSGSNSGNTATLTISRGEAGDEADYYCQVWDSSSDHVVFGGGTKLTVL", "values": [
      {"measurement": "Kd", "value": 349, "unit": "nM"}
    ]},
    {"binder": "unnamed (protein) chain 1: QMQLVESGGGVVQPGRSLRLSCAASGFTFSTYAMHWVRQAPGKGLEWVAVIWYDGSNKHYADSVKGRFTITRDNSKNTLNLQMNSLRAEDTAVYYCARAPRYYEYYEAFDVWGQGTMVTVSS chain 2: SYVLTQPPSVSVAPGQTARITCGGNNLGSKSVHWYQQKPGQAPVLVVYDDSDRPSWIPERFSGSNSGNTATLTISRGEAGDEADYYCQVWDSSSDHVVFGGGTKLTVL", "values": [
      {"measurement": "Kd", "value": 105, "unit": "nM"}
    ]}
  ]
}
